From publication PMC2199935
Blank lines part the entries; values can stand above or below the molecule they belong to.

How the values were obtained:
[1] = molecular target: beta-catenin (canine (endogenous in MDCK)) (UniProt B6V8E6); test: co-IP
[2] = molecular target: p120/p100 (anti-p120 immunoreactive material), canine (canine (endogenous in MDCK)); test: co-IP

percent of the pool in association, normalised to 100% efficiency [1]: 21%
Molecule: p120/p100 (anti-p120 immunoreactive material), canine (natural protein)

percent of the pool in association, normalised to 100% efficiency [2]: 24%
B1: beta-catenin (natural protein)
chain: MATQADLMELDMAMEPDRKAAVSHWQQQSYLDSGIHSGATTTAPSLSGKGNPEEEDVDTTQVLYEWEQGFSQSFTQEQVADIDGQYAMTRAQRVRAAMFPETLDEGMQIPSTQFDAAHPTNVQRLAEPSQMLKHAVVNLINYQDDAELATRAIPELTKLLNDEDQVVVNKAAVMVHQLSKKEASRHAIMRSPQMVSAIVRTMQNTNDVETARCTAGTLHNLSHHREGLLAIFKSGGIPALVKMLGSPVDSVLFYAITTLHNLLLHQEGAKMAVRLAGGLQKMVALLNKTNVKFLAITTDCLQILAYGNQESKLIILASGGPQALVNIMRTYTYEKLLWTTSRVLKVLSVCSSNKPAIVEAGGMQALGLHLTDPSQRLVQNCLWTLRNLSDAATKQEGMEGLLGTLVQLLGSDDINVVTCAAGILSNLTCNNYKNKMMVCQVGGIEALVRTVLRAGDREDITEPAICALRHLTSRHQEAEMAQNAVRLHYGLPVVVKLLHPPSHWPLIKATVGLIRNLALCPANHAPLREQGAIPRLVQLLVRAHQDTQRRTSMGGTQQQFVEGVRMEEIVEGCTGALHILARDVHNRIVIRGLNTIPLFVQLLYSPIENIQRVAAGVLCELAQDKEAAEAIEAEGATAPLTELLHSRNEGVATYAAAVLFRMSEDKPQDYKKRLSVELTSSLFRTEPMAWNETADLGLDIGAQGEPLGYRQDDPSYRSFHSGGYGQDALGMDPMMEHEMGGHHPGADYPVDGLPDLGHAQDLMDGLPPGDSNQLAWFDTDL
